Experimental data reported in article PMC8509203, “Members of the GADD45 Protein Family Show Distinct Propensities to form Toxic Amyloid-Like Aggregates in Physiological Conditions” (International Journal of Molecular Sciences, 2021).
One block for each molecule: values may come before it.

Key:
[1] = biological target: MKK7 kinase domain (Homo sapiens) (UniProt O14733); experiment: SPR; details: cited from earlier work
[2] = biological target: T1, kinase domain of human MKK7 (mitogen-activated protein kinase kinase 7) (human, UniProt O14733 120-380); experiment: BLI; biotinylated GADD45 proteins immobilised on super streptavidin (SSA) biosensors (2.5 nm), Octet RED96; MKK7_KD in solution at 9-300 nM; 0.01 M HEPES pH 7.4, 0.15 M NaCl, 3 mM EDTA, 0.005% Surfactant P20, 2 mM DTT; 1:1 binding model; details: both partners purified
T1 construct: MKK7, human, kinase domain; also called MKK7_KD; source: recombinant, obtained as His-fusion protein as previously reported
T1 sequence (looked up): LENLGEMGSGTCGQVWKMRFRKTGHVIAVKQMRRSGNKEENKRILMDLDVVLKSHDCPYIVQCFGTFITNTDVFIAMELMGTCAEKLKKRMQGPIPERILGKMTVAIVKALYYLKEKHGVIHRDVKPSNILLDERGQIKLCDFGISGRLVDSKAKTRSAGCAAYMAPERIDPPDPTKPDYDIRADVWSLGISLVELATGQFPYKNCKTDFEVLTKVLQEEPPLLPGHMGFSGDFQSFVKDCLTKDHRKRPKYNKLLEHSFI

[3] = biological target: the molecule itself; experiment: SEC-MALS; SEC-LS, Superdex S200 10/30 with miniDAWN TREOS; 0.5-1.0 mg loaded; 20 mM Tris-HCl pH 7.5, 100 mM NaCl, 5 mM DTT, 5% glycerol (the results and the legend name only 5 mM DTT in 20 mM Tris-HCl pH 7.5); oligomeric state of the native protein

Molecule: GADD45β (from UniProt O75293)
Kd [1]: 6 nM

Kd [2]: 2 nM
B1: GADD45β (growth arrest and DNA damage-inducible 45 beta) (natural protein, human, UniProt O75293 1-160, looked up)
chain: MTLEELVACDNAAQKMQTVTAAVEELLVAAQRQDRLTVGVYESAKLMNVDPDSVVLCLLAIDEEEEDDIALQIHFTLIQSFCCDNDINIVRVSGMQRLAQLLGEPAETQGTTEARDLHCLLVTNPHTDAWKSHGLVEVASYCEESRGNNQWVPYISLQER
modifications: biotin (EZ-Link Sulfo-NHS-LC-Biotinylation Kit), in the BLI experiment only
notes: GADD45β, human; cloned into pET-28a+ as previously reported; Monomeric by SEC-LS; The same construct was used without biotin in SEC-LS and biotinylated in BLI; also called Human GADD45β; source: E. coli BL21(DE3), purified (Ni2+-NTA, Superdex 200 SEC)

B2: GADD45γ (growth arrest and DNA damage-inducible 45 gamma) (natural protein, human, UniProt O95257 1-159, looked up)
chain: MTLEEVRGQDTVPESTARMQGAGKALHELLLSAQRQGCLTAGVYESAKVLNVDPDNVTFCVLAAGEEDEGDIALQIHFTLIQAFCCENDIDIVRVGDVQRLAAIVGAGEEAGAPGDLHCILISNPNEDAWKDPALEKLSLFCEESRSVNDWVPSITLPE
modifications: biotin (EZ-Link Sulfo-NHS-LC-Biotinylation Kit), in the BLI experiment only
notes: GADD45γ, human; gene purchased from Sigma Aldrich, cloned into pETM-13 with BamHI and XhoI; Dimeric by SEC-LS; The same construct was used without biotin in SEC-LS and biotinylated in BLI; source: E. coli BL21(DE3), purified (Ni2+-NTA, Superdex 200 SEC)
stoichiometry N [3]: 2
